Where a chain is given by its changes, count along the chain named. In names and notes the source's numbering stands.
Columns and labels:
purified protein [1] = substrate: N[C@@H](Cc1c[nH]cn1)C(=O)O; assay: purified protein; conditions: co-substrate L-Cys
purified protein [2] = substrate: N[C@@H](CS)C(=O)O; assay: purified protein; conditions: co-substrate L-His; 23 °C
[3] = substrate: C[N+](C)(C)[C@@H](Cc1cnc[nH]1)C(=O)[O-]; assay: O2 consumption, NeoFoxy oxygen electrode; format: biochemical, Hydrogenimonas thermophila; conditions: co-substrate L-Cys, 23 °C
[4] = substrate: N[C@@H](Cc1c[nH]cn1)C(=O)O; assay: O2 consumption, NeoFoxy oxygen electrode; format: biochemical, Hydrogenimonas thermophila; conditions: co-substrate L-Cys, 23 °C
[5] = substrate: N[C@@H](CS)C(=O)O; assay: O2 consumption, NeoFoxy oxygen electrode; format: biochemical, Hydrogenimonas thermophila; conditions: co-substrate L-His, 23 °C

B1: OvoATh2 (Hydrogenimonas thermophila; Y399F) (protein)
chain: NKILLRPLLLKQKNPENLRQLIKKSFHRTFDTFESLFSMLRNDEAFYNRPEPLRHPHIFYFGHTAVFFINKLILSKIIDTRINAKMESIFAIGVDEMSWDDLNDDHYEWPSVEETRLYRNRVREVVDNLINTLPLELPITWDSPWWIILMGIEHERIHIETSSVLIRQTDISLVLPQPEWSKCNVSGKAPENELLFVPGGEIEIGKYKSDDYYGWDNEYGKHKTVIPDFKASKYLVSNGEFMEFVKDGGYENDLWWEEEGLAWRNFKKAKHPIFWIPFKNEYRYRTLTEIVDMPLDWPVDVNYHEAKAFCNWLSAKKGKPIRLPVEDEWYRLKEYCNVPDVSKWDEKAPANINLEHYASACPVTQFSFGNFYDVIGNVWQWTETPIYPFNGFKIHPIFDDFSTPTFDNRHNLIKGGSFISTGNEILASSRYAFRRHFFQHAGFRYVESSYKEKINSSGYESDTQVSQYCEFGWGDRYFGIENYPKRCAKICIEVTEGKPRKKALDVGCAIGRSTLELATSFESVTGLDFSARFIEMAERMRKDGSIRYTITTEGELVEYKEATLPKRLAKVVDRVEFWQADACNLKPIFTGYDLVFAGNLIDRLYDPAKFLNDIGKRINSGGMLILTSPYTWLEEFTPKQKWLGGFKQDGEPVKSIDGLKSHLKDSFKLIETRDIEFVIRETARKFQHSVAQMSIWEKI
With B1 the Km (purified protein [1]; 23 °C) was 38.2 ± 2.6 µM, the kcat (purified protein [1]; 23 °C) was 361.2 ± 5.9 min^–1 and the Km (purified protein [2]) was 575.2 ± 22.0 µM. The kcat (purified protein [2]) was 361.2 ± 5.9 min^–1 and the kcat/Km (purified protein [2]) was 10500 M⁻¹ s⁻¹.

B2: OvoATh2 (Hydrogenimonas thermophila; Y61F) (protein)
chain: B1 chain with Y60F, F398Y
For B2, the Km (purified protein [1]) was 50.9 ± 2.5 µM and the kcat (purified protein [1]) was 23.4 ± 0.2 min^–1.

B3: OvoATh2 (Hydrogenimonas thermophila; Y399F/Y61F) (protein)
chain: B1 chain with Y60F
Protein B3 has a Km (purified protein [1]) of 31.3 ± 4.0 µM and a kcat (purified protein [1]) of 14.8 ± 0.3 min^–1.

B4: OvoATh2 (Hydrogenimonas thermophila) (protein)
chain: B1 chain with F398Y
With B4 the Km [3] was 61.9 ± 3.5 µM, the kcat [3] was 127.2 ± 1.5 min^–1 and the Km [4] was 585.1 ± 28.0 µM. For the same protein, the kcat [4] was 589.0 ± 3.5 min^–1, the Km [5] was 278.6 ± 9.0 µM and the kcat [5] was 589.0 ± 3.5 min^–1. The kcat/Km [5] was 35000 ± 1500 M⁻¹ s⁻¹.
